Test results published in IntAct's records for PubMed 31515488.

B1: AP-4 complex accessory subunit RUSC1 (Homo sapiens), Q9BVN2 (parent)
chain: MLSPQRALLCNLNHIHLQHVSLGLHLSRRPELQEGPLSTPPPPGDTGGKESRGPCSGTLVDANSNSPAVPCRCCQEHGPGLENRQDPSQEEEGAASPSDPGCSSSLSSCSDLSPDESPVSVYLRDLPGDEDAHPQPSIIPLEQGSPLASAGPGTCSPDSFCCSPDSCSGASSSPDPGLDSNCNALTTCQDVPSPGLEEEDERAEQDLPTSELLEADDGKIDAGKTEPSWKINPIWKIDTEKTKAEWKTTENNNTGWKNNGNVNSSWKSEPEKFDSGWKTNTRITDSGSKTDAGKIDGGWRSDVSEEPVPHRTITSFHELAQKRKRGPGLPLVPQAKKDRSDWLIVFSPDTELPPSGSPGGSSAPPREVTTFKELRSRSRAPAPPVPPRDPPVGWALVPPRPPPPPVPPRRKKNRPGLQPIAEGQSEEGRAVSPAAGEEAPAAKEPGAQAGLEVRSSWSFAGVPGAQRLWMAEAQSGTGQLQEQKKGLLIAVSVSVDKIISHFGAARNLVQKAQLGDSRLSPDVGHLVLTTLCPALHALVADGLKPFRKDLITGQRRSSPWSVVEASVKPGSSTRSLGTLYSQVSRLAPLSSSRSRFHAFILGLLNTKQLELWFSSLQEDAGLLSLLYLPTGFFSLARGGCPSLSTELLLLLQPLSVLTFHLDLLFEHHHHLPLGPPQAPAPPGPPPALQQTMQAMLHFGGRLAQSLRGTSKEAASDPSDSPNLPTPGSWWEQLTQASRVYASGGTEGFPLSRWAPGRHGTAAEEGAQERPLPTDEMAPGRGLWLGRLFGVPGGPAENENGALKSRRPSSWLPPTVSVLALVKRGAPPEMPSPQELEASAPRMVQTHRAVRALCDHTAARPDQLSFRRGEVLRVITTVDEDWLRCGRDGMEGLVPVGYTSLVL
B2: Mothers against decapentaplegic homolog 4 (Homo sapiens), Q13485 (parent)
chain: MDNMSITNTPTSNDACLSIVHSLMCHRQGGESETFAKRAIESLVKKLKEKKDELDSLITAITTNGAHPSKCVTIQRTLDGRLQVAGRKGFPHVIYARLWRWPDLHKNELKHVKYCQYAFDLKCDSVCVNPYHYERVVSPGIDLSGLTLQSNAPSSMMVKDEYVHDFEGQPSLSTEGHSIQTIQHPPSNRASTETYSTPALLAPSESNATSTANFPNIPVASTSQPASILGGSHSEGLLQIASGPQPGQQQNGFTGQPATYHHNSTTTWTGSRTAPYTPNLPHHQNGHLQHHPPMPPHPGHYWPVHNELAFQPPISNHPAPEYWCSIAYFEMDVQVGETFKVPSSCPIVTVDGYVDPSGGDRFCLGQLSNVHRTEAIERARLHIGKGVQLECKGEGDVWVRCLSDHAVFVQSYYLDREAGRAPGDAVHKIYPSAYIKVFDLRQCHRQMQQQAATAQAAAAAQAAAVAGNIPGPGSVGGIAPAISLSAAAGIGVDDLRRLCILRMSFVKGWGPDYPRQSIKETPCWIEIHLHRALQLLDEVLHTMPIADPQPLD
partner: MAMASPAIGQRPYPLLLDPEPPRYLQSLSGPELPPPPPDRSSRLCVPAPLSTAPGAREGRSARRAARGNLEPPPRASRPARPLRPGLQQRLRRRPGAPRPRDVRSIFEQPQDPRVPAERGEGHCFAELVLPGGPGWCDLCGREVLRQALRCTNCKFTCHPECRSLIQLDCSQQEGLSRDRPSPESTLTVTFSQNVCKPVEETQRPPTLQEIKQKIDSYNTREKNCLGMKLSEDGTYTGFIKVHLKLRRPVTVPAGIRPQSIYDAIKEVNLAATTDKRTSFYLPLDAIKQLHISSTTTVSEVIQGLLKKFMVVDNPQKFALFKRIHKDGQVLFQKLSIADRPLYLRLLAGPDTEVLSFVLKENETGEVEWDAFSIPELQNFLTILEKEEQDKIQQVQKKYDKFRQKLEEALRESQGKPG

Variants of: B1
Conditions: with pnma1_human PNMA1, Q8ND90
pnma1_human PNMA1, Q8ND90, sequence (Q8ND90 whole entry): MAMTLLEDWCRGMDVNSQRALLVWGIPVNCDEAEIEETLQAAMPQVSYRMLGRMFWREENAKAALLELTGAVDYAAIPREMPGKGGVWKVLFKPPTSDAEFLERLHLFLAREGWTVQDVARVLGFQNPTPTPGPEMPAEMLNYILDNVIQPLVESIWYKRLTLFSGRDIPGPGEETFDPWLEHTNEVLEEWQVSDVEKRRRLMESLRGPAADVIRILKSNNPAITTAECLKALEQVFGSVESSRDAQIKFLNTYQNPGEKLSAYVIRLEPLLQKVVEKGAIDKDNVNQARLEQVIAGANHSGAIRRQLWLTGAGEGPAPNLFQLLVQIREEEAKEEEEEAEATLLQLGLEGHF

| Variant | effect of a mutation on the interaction |
| --- | --- |
| V493A | with no effect |
| D880Y | with no effect |

Variants of: B1
Conditions: with fam9b_human FAM9B

| Variant | effect of a mutation on the interaction |
| --- | --- |
| V493A | with no effect |
| D880Y | with no effect |

Variants of: B2
Conditions: with rasf5_human RASSF5, Q8WWW0

| Variant | effect of a mutation on the interaction |
| --- | --- |
| Y353S | with no effect |
| L533R | with no effect |
| G352R | with no effect |
| E330K | with no effect |
| V350D | disrupting interaction strength |
| C324R | disrupting interaction strength |
